Assay results as given in the supplement of paper PMC9112550, “Optimization of the antimicrobial peptide Bac7 by deep mutational scanning” (BMC Biology, 2022).

tested on: Escherichia coli TOP10; assay: shrunken log2 fold change of peptide-encoding DNA abundance (4.5 h post-induction vs induction); higher = less antimicrobial activity (less host growth inhibition); settings: time post-induction: 4.5 h; library: site-saturation at positions 5, 18, 19, 20
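Note: peptides expressed intracellularly from a pBAD plasmid library in pooled LB shake-flask culture, induced with 0.3% L-arabinose, DNA abundance read by NGS, three biological replicates, DESeq2 with apeglm shrinkage.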

Point of comparison: RRIRVRPPRLPRPRPRPQGMPRP, “shrunken log2 fold change” value -1.02. Against it:
- RRIRPRPPRLPRPRPRPLWQPRP — higher, 0.0105
- RRIRYRPPRLPRPRPRPTKNPRP — higher, -0.495
- RRIRFRPPRLPRPRPRPHMSPRP — higher, 0.0344
- RRIRKRPPRLPRPRPRPRDQPRP — higher, 0.000671
- RRIRQRPPRLPRPRPRPGTFPRP — higher, -0.499
- RRIRARPPRLPRPRPRPEHRPRP — higher, 0.0198
- RRIRFRPPRLPRPRPRPYNIPRP — higher, -0.181
- RRIRIRPPRLPRPRPRPLVYPRP — higher, -0.592
- RRIRGRPPRLPRPRPRPLHQPRP — higher, 0.665
- RRIRLRPPRLPRPRPRPGDIPRP — higher, -0.385
- RRIRLRPPRLPRPRPRPHKLPRP — higher, -0.1
- RRIRPRPPRLPRPRPRPHRPPRP — higher, 0.0359
- RRIRKRPPRLPRPRPRPIARPRP — higher, -0.0481
- RRIRDRPPRLPRPRPRPDQRPRP — higher, -0.00174
- RRIRERPPRLPRPRPRPRKQPRP — higher, 0.00709
- RRIRNRPPRLPRPRPRPQLRPRP — higher, 0.0493
- RRIRARPPRLPRPRPRPVPSPRP — higher, 0.181
- RRIRRRPPRLPRPRPRPQQFPRP — higher, 0.0492
- RRIRERPPRLPRPRPRPEVVPRP — higher, 0.122
- RRIRMRPPRLPRPRPRPMCTPRP — higher, -0.0175
- RRIRYRPPRLPRPRPRPDQIPRP — higher, 0.0304
- RRIRKRPPRLPRPRPRPQQFPRP — higher, -0.0324
- RRIRERPPRLPRPRPRPCNVPRP — higher, -0.0745
- RRIRQRPPRLPRPRPRPANYPRP — higher, -0.0497
- RRIRHRPPRLPRPRPRPAHFPRP — higher, 0.165
- RRIRSRPPRLPRPRPRPLRWPRP — higher, 0.776
- RRIRKRPPRLPRPRPRPKSIPRP — higher, -0.0265
- RRIRTRPPRLPRPRPRPFHYPRP — higher, -0.0376
- RRIRERPPRLPRPRPRPNYWPRP — higher, -0.344
- RRIRSRPPRLPRPRPRPAGLPRP — higher, -0.0231
- RRIRKRPPRLPRPRPRPWVFPRP — higher, 0.0817
- RRIRRRPPRLPRPRPRPPCYPRP — higher, 0.473
- RRIRCRPPRLPRPRPRPTAGPRP — higher, 0.411
- RRIRFRPPRLPRPRPRPMSSPRP — higher, -0.0482
- RRIRCRPPRLPRPRPRPRFQPRP — higher, 0.234
- RRIRMRPPRLPRPRPRPWTLPRP — higher, -0.0343
- RRIRYRPPRLPRPRPRPNECPRP — higher, 0.0256
- RRIRIRPPRLPRPRPRPTSNPRP — higher, -0.807
- RRIRWRPPRLPRPRPRPSHDPRP — higher, 0.023
- RRIRCRPPRLPRPRPRPARHPRP — higher, 0.061
- RRIRCRPPRLPRPRPRPLPIPRP — higher, -0.0776
- RRIRQRPPRLPRPRPRPGEVPRP — higher, -0.102
- RRIRIRPPRLPRPRPRPYEDPRP — higher, -0.00133
- RRIRHRPPRLPRPRPRPTKLPRP — higher, -0.255
- RRIRSRPPRLPRPRPRPPWSPRP — higher, 0.25
- RRIRYRPPRLPRPRPRPGGYPRP — higher, -0.00146
- RRIRDRPPRLPRPRPRPQFIPRP — within 0.2 log units, -0.935
- RRIRVRPPRLPRPRPRPDTHPRP — higher, -0.214
- RRIRMRPPRLPRPRPRPPCIPRP — higher, -0.143
- RRIRWRPPRLPRPRPRPRRHPRP — higher, 0.559
- RRIRRRPPRLPRPRPRPPTLPRP — higher, 0.739
- RRIRIRPPRLPRPRPRPMWVPRP — higher, -0.11
- RRIRSRPPRLPRPRPRPGDRPRP — higher, -0.267
- RRIRDRPPRLPRPRPRPRPAPRP — higher, 0.966
- RRIRMRPPRLPRPRPRPVQKPRP — higher, 0.069
- RRIRDRPPRLPRPRPRPCQSPRP — higher, -0.121
- RRIRCRPPRLPRPRPRPFDRPRP — higher, -0.115
- RRIRLRPPRLPRPRPRPQSFPRP — higher, -0.0139
- RRIRRRPPRLPRPRPRPNMPPRP — higher, -0.342
- RRIRSRPPRLPRPRPRPMNPPRP — higher, -0.0648
- RRIRNRPPRLPRPRPRPNLVPRP — higher, -0.0403
- RRIRWRPPRLPRPRPRPHECPRP — higher, -0.0602
- RRIRFRPPRLPRPRPRPSFLPRP — higher, -0.572
- RRIRHRPPRLPRPRPRPGTFPRP — higher, -0.132
- RRIRSRPPRLPRPRPRPGRCPRP — higher, 0.247
- RRIRYRPPRLPRPRPRPAHYPRP — higher, -0.18
- RRIRPRPPRLPRPRPRPKWLPRP — higher, 0.198
- RRIRLRPPRLPRPRPRPDCDPRP — higher, 0.183
- RRIRSRPPRLPRPRPRPCRPPRP — higher, -0.584
- RRIRWRPPRLPRPRPRPKSIPRP — higher, -0.017
- RRIRDRPPRLPRPRPRPKILPRP — higher, 0.042
- RRIRGRPPRLPRPRPRPDGKPRP — higher, 0.0293
- RRIRGRPPRLPRPRPRPCSEPRP — higher, 0.0744
- RRIRDRPPRLPRPRPRPIYFPRP — within 0.2 log units, -0.839
- RRIRLRPPRLPRPRPRPKAFPRP — higher, 0.0112
- RRIRMRPPRLPRPRPRPEHAPRP — higher, 2.54
- RRIRVRPPRLPRPRPRPRKHPRP — higher, 0.112
- RRIRSRPPRLPRPRPRPLRLPRP — higher, 0.54
- RRIRARPPRLPRPRPRPGPMPRP — higher, 0.676
- RRIRIRPPRLPRPRPRPPPVPRP — higher, 0.414
- RRIRFRPPRLPRPRPRPSLDPRP — higher, -0.296
- RRIRVRPPRLPRPRPRPFWLPRP — higher, 0.234
- RRIRGRPPRLPRPRPRPRLRPRP — higher, 0.87
- RRIRRRPPRLPRPRPRPKSHPRP — higher, -0.172
- RRIRKRPPRLPRPRPRPKPRPRP — higher, 1.06
- RRIRVRPPRLPRPRPRPSDAPRP — higher, -0.203
- RRIRNRPPRLPRPRPRPNWFPRP — higher, -0.145
- RRIRGRPPRLPRPRPRPTTNPRP — higher, 0.878
- RRIRDRPPRLPRPRPRPCEDPRP — higher, -0.0105
- RRIRIRPPRLPRPRPRPMLDPRP — higher, 0.0726
- RRIRCRPPRLPRPRPRPHWAPRP — higher, 0.244
- RRIRNRPPRLPRPRPRPMFRPRP — higher, -0.0515
- RRIRYRPPRLPRPRPRPFFFPRP — higher, -0.253
- RRIRGRPPRLPRPRPRPTKVPRP — higher, 0.414
- RRIRWRPPRLPRPRPRPLLKPRP — higher, -0.0261
- RRIRWRPPRLPRPRPRPQIAPRP — higher, 0.141
- RRIRGRPPRLPRPRPRPKLTPRP — higher, 0.808
- RRIRWRPPRLPRPRPRPSDAPRP — higher, 0.191
- RRIRSRPPRLPRPRPRPTYCPRP — higher, -0.112
- RRIRMRPPRLPRPRPRPRHRPRP — higher, 0.249
- RRIRARPPRLPRPRPRPVYNPRP — higher, -0.482
- RRIRFRPPRLPRPRPRPQLHPRP — higher, 0.381
- RRIRWRPPRLPRPRPRPMWIPRP — higher, 0.135
- RRIRQRPPRLPRPRPRPLMSPRP — higher, -0.0453
- RRIRVRPPRLPRPRPRPKEHPRP — higher, 0.0755
- RRIRWRPPRLPRPRPRPTEFPRP — higher, -0.0793
- RRIRHRPPRLPRPRPRPRHGPRP — higher, -0.0477
- RRIRSRPPRLPRPRPRPSYNPRP — higher, -0.759
- RRIRARPPRLPRPRPRPRLRPRP — higher, 0.514
- RRIRLRPPRLPRPRPRPCISPRP — higher, -0.177
- RRIRSRPPRLPRPRPRPLHHPRP — higher, -0.465
- RRIRHRPPRLPRPRPRPFDHPRP — higher, -0.0277
- RRIRERPPRLPRPRPRPLAFPRP — higher, -0.0552
- RRIRRRPPRLPRPRPRPVRSPRP — higher, 0.551
- RRIRTRPPRLPRPRPRPQCQPRP — higher, -0.0883
- RRIRERPPRLPRPRPRPKREPRP — higher, 0.118
- RRIRTRPPRLPRPRPRPYAVPRP — higher, -0.331
- RRIRMRPPRLPRPRPRPDPRPRP — higher, 0.104
- RRIRIRPPRLPRPRPRPFLDPRP — within 0.2 log units, -0.888
- RRIRDRPPRLPRPRPRPWVIPRP — higher, -0.00136
- RRIRSRPPRLPRPRPRPERNPRP — higher, -0.098
- RRIRHRPPRLPRPRPRPWSFPRP — higher, 0.0231
- RRIRLRPPRLPRPRPRPARSPRP — higher, 0.343
- RRIRARPPRLPRPRPRPMNDPRP — higher, 0.138
- RRIRCRPPRLPRPRPRPTKEPRP — higher, -0.0808
- RRIRVRPPRLPRPRPRPRAGPRP — higher, 0.488
- RRIRMRPPRLPRPRPRPAHCPRP — higher, 0.352
- RRIRHRPPRLPRPRPRPAQAPRP — higher, 0.183
- RRIRRRPPRLPRPRPRPHCPPRP — higher, 0.0475
- RRIRIRPPRLPRPRPRPPYAPRP — higher, -0.274
- RRIRCRPPRLPRPRPRPMMNPRP — higher, -0.278
- RRIRERPPRLPRPRPRPSNPPRP — higher, -0.681
- RRIRNRPPRLPRPRPRPGKFPRP — higher, -0.034
- RRIRIRPPRLPRPRPRPGEEPRP — higher, -0.0165
- RRIRRRPPRLPRPRPRPFCEPRP — higher, 0.0918
- RRIRNRPPRLPRPRPRPKAEPRP — higher, 0.153
- RRIRGRPPRLPRPRPRPEEEPRP — higher, 0.107
- RRIRSRPPRLPRPRPRPANNPRP — higher, -0.367
- RRIRSRPPRLPRPRPRPQANPRP — higher, -0.0559
- RRIRPRPPRLPRPRPRPKCPPRP — higher, 0.131
- RRIRCRPPRLPRPRPRPVTNPRP — higher, -0.0299
- RRIRWRPPRLPRPRPRPSNIPRP — higher, -0.699
- RRIRFRPPRLPRPRPRPLYCPRP — within 0.2 log units, -0.937
- RRIRDRPPRLPRPRPRPFMYPRP — higher, -0.212
- RRIRCRPPRLPRPRPRPFFPPRP — higher, -0.167
- RRIRWRPPRLPRPRPRPRKNPRP — higher, 0.0168
- RRIRARPPRLPRPRPRPNKVPRP — higher, -0.108
- RRIRHRPPRLPRPRPRPACIPRP — higher, -0.132
- RRIRGRPPRLPRPRPRPGPVPRP — higher, 1.24
